Holding throughout (test): peptide SPOT array, c-Myc-tagged receptor at 1 uM or 100 nM, anti-c-Myc-Cy3
The target of experiment [1] is Bcl-xL, Q07817.
Experiment [2] addresses T1, Mcl-1, Q07820.
T1 chain: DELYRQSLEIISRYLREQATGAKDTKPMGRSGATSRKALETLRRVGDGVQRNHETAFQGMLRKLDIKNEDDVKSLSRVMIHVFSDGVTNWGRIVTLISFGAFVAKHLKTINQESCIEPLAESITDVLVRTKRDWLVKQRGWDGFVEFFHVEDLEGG

Experiment [3] concerns the target T2, Bfl-1, Q16548.
T2 chain: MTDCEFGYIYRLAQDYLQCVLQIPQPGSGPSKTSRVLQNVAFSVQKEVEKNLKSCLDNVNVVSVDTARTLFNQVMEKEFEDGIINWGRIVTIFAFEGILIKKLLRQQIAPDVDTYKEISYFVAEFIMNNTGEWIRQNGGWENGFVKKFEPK

Sequence of Bcl-xL, Q07817 (Q07817 1-209): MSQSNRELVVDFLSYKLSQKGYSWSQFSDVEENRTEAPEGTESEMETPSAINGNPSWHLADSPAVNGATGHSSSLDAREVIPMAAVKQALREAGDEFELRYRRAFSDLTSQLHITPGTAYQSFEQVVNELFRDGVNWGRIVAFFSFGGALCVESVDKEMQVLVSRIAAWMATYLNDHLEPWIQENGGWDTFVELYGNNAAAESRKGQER

B1: KIF13A (peptide)
chain: NKSLTTLGLVISSLADQAAGKGKSKF
Take B1: the figures for the SPOT signal as a fraction of Bim BH3's signal on the same receptor and array in experiment [1] and in experiment [2] were 0.4 and 0.18, respectively.

B2: SPAG9 (peptide)
chain: HPRKESQVRQLAWVGDGVWVSIRLDS
B2: the SPOT signal as a fraction of Bim BH3's signal on the same receptor and array in experiment [1] and in experiment [2] was 0.02 each time.

B3: DCAF8 (peptide)
chain: TLHFNQRGTWDASGSDDLKVVVWDWV
As to B3, the SPOT signal as a fraction of Bim BH3's signal on the same receptor and array in experiment [1] and in experiment [2] was 0.02 each time.

B4: FAM115A (peptide)
chain: RGAMLSLATGDAHSGSDLSLLVPEIE
For B4, the SPOT signal as a fraction of Bim BH3's signal on the same receptor and array in experiment [1] turned out to be 0.06; in experiment [2], 0.04.

B5: PKD2L1 (peptide)
chain: NKTMTQLSSTLARCLKDILGFAVMFF
Take B5: the SPOT signal as a fraction of Bim BH3's signal on the same receptor and array stood at 0.19 in experiment [1] and 0.12 in experiment [2].

B6: SRL (peptide)
chain: GYPFNDVCQWFIDRADLIFVVFDPTK
For B6, the values for the SPOT signal as a fraction of Bim BH3's signal on the same receptor and array in experiment [3], in experiment [1] and in experiment [2] were 0.05, 0.07 and 0.06, respectively.

B7: OTUD5 (peptide)
chain: KQMKEDGACLFRAVLDQVYGDQDMHE
As for B7, the SPOT signal as a fraction of Bim BH3's signal on the same receptor and array in experiment [3] came to 0.0567.

B8: FBXL3 (peptide)
chain: CHGLRELALNYHLLSDELLLALSSEK
B8: the SPOT signal as a fraction of Bim BH3's signal on the same receptor and array in experiment [3] came out at 0.04; in experiment [1] it was 0.07; in experiment [2] it was 0.06.

B9: CAND1 (peptide)
chain: ERAISCMGQIICNLGDNLGSDLPNTL
For the molecule B9, the SPOT signal as a fraction of Bim BH3's signal on the same receptor and array in experiment [1] and in experiment [2] was 0.01 throughout.

B10: OTUD5 (peptide)
chain: KQMKEDGACLFRAVADQVYGDQDMHE
B10 yielded an SPOT signal as a fraction of Bim BH3's signal on the same receptor and array in experiment [3] of 0.0533.

B11: CAND1 (peptide)
chain: ERAISCMGQIDCNLGDNLGSDLPNTL
Regarding B11, the SPOT signal as a fraction of Bim BH3's signal on the same receptor and array in experiment [1] and in experiment [2] was 0.01 each time.

B12: OTUD5 (peptide)
chain: KQMKEDGACLDRAVADQVYGDQDMHE
In experiment [3], B12 yielded an SPOT signal as a fraction of Bim BH3's signal on the same receptor and array of 0.0533.

B13: MSH3 (peptide)
chain: AVLCVECGYKYRFFLEDAEIAARELN
Take B13: the SPOT signal as a fraction of Bim BH3's signal on the same receptor and array in experiment [1] and in experiment [2] was 0.02 each time.

B14: BCAR1 (peptide)
chain: SKFVILSAHKDVFIGDTLSRQAKAAD
For the molecule B14, the SPOT signal as a fraction of Bim BH3's signal on the same receptor and array in experiment [1] was found to be 0.01; in experiment [2] it was 0.02.

B15: CAD (peptide)
chain: LRVSTKIGSCDKSVGEVMGIGRSFEE
Regarding B15, the SPOT signal as a fraction of Bim BH3's signal on the same receptor and array in experiment [1] and in experiment [2] was 0.02 in each case.

B16: CPS1 (peptide)
chain: HGTSSRIGSSMKSVGEVMAIGRTFEE
With B16, the SPOT signal as a fraction of Bim BH3's signal on the same receptor and array in experiment [1] and in experiment [2] was 0.02 each time.

B17: HDAC2 (peptide)
chain: MEMYQPSAVVLQCGADSLSGDRLGCF
For the molecule B17, the SPOT signal as a fraction of Bim BH3's signal on the same receptor and array in experiment [3] was 0.03.

B18: TIGD7 (peptide)
chain: VLSRIEAGRSLKSVLDEFGISKSTFY
For B18, the figures for the SPOT signal as a fraction of Bim BH3's signal on the same receptor and array in experiment [1] and in experiment [2] were 0.08 and 0.085, respectively.

B19: OBSCN (peptide)
chain: RCELQICGLADADAGEYLCVCGQERT
On to B19, for which the SPOT signal as a fraction of Bim BH3's signal on the same receptor and array in experiment [1] and in experiment [2] was 0.01 each time.

B20: TBL1XR1 (peptide)
chain: AIKWDPTGNLLASCLDDMTLKIWSMK
On to B20, for which the SPOT signal as a fraction of Bim BH3's signal on the same receptor and array in experiment [1] turned out to be 0.07; in experiment [2], 0.05.

B21: GBP6 (peptide)
chain: NDDTPWIARTLDNLLDELTAILSAPA
For the molecule B21, the results for the SPOT signal as a fraction of Bim BH3's signal on the same receptor and array in experiment [3], in experiment [1] and in experiment [2] were 0.04, 0.05 and 0.04, respectively.

B22: GLOD4 (peptide)
chain: VILADPDGHEICFVGDEAFRELSKMD
Regarding B22, the results for the SPOT signal as a fraction of Bim BH3's signal on the same receptor and array in experiment [1] and in experiment [2] were 0.02 and 0.01, respectively.

B23: SORT1 (peptide)
chain: VFDDLRGSVSLSWVGDSTGVILVLTT
Take B23: the SPOT signal as a fraction of Bim BH3's signal on the same receptor and array is 0.02 in experiment [1] and 0.01 in experiment [2].

B24: UBA6 (peptide)
chain: ADVHGIWSRLFCDFLDEFEVLDTTGE
For the molecule B24, the SPOT signal as a fraction of Bim BH3's signal on the same receptor and array in experiment [3] turned out to be 0.04; in experiment [1] it was 0.06; in experiment [2], 0.05.

B25: SORT1 (peptide)
chain: VFDDLRGSVSDSWVGDSTGVILVLTT
For the molecule B25, the SPOT signal as a fraction of Bim BH3's signal on the same receptor and array in experiment [1] and in experiment [2] was 0.02 each time.

B26: DSN1 (peptide)
chain: RAKASSLSEEDKHFADGLETDGTLQK
Take B26: the SPOT signal as a fraction of Bim BH3's signal on the same receptor and array in experiment [3] was determined as 0.03; in experiment [1] it was 0.06; in experiment [2], 0.04.

B27: CASP3 (peptide)
chain: SWFIQSLCAMLKQYLDKLEFMHILTR
As for B27, the SPOT signal as a fraction of Bim BH3's signal on the same receptor and array was 0.21 in experiment [3] and 0.27 in experiment [1].

B28: CAD (peptide)
chain: LRVSTKIGSCMKSVLEVMGIGRSFEE
As for B28, the SPOT signal as a fraction of Bim BH3's signal on the same receptor and array in experiment [1] and in experiment [2] was 0.04 each time.

B29: DDX7 (peptide)
chain: GLFSATSGVDLKYVADTFGQEVRPVS
Take B29: the SPOT signal as a fraction of Bim BH3's signal on the same receptor and array in experiment [1] and in experiment [2] was 0.02 each time.

B30: VPS13C (peptide)
chain: SRQPRDFGDSLARGGKGFLRGVVGGV
With B30, the SPOT signal as a fraction of Bim BH3's signal on the same receptor and array in experiment [1] was 1; in experiment [2] it was 0.53.

B31: IQGAP2 (peptide)
chain: ISSLDLLPYGDRYIAKVLKNSIHEKF
For the molecule B31, the values for the SPOT signal as a fraction of Bim BH3's signal on the same receptor and array in experiment [3], in experiment [1] and in experiment [2] were 0.51, 0.64 and 0.34, respectively.

B32: FTL (peptide)
chain: THFLDEEVKLIKKMGDHLTNLHRLGG
B32 registered an SPOT signal as a fraction of Bim BH3's signal on the same receptor and array in experiment [3] of 0.04.

B33: PRKD3 (peptide)
chain: IQENVDISTVYQIFLDEVLGSGQFGI
For the molecule B33, the SPOT signal as a fraction of Bim BH3's signal on the same receptor and array was determined as 0.05 in experiment [3], 0.08 in experiment [1] and 0.05 in experiment [2].

B34: FOXJ2 (peptide)
chain: PAKKMTLSEIDRWICDNFPYYKNAGI
B34: the values for the SPOT signal as a fraction of Bim BH3's signal on the same receptor and array in experiment [3], in experiment [1] and in experiment [2] were 0.26, 0.58 and 0.29, respectively.
